Results published in the RNAGym collection of RNA variant scans (doi:10.1073/pnas.2313332121).

B1: TPR t1 (parent)
chain: GACCAAUCUGCCCUCAGAGCUCGAGAACAUCUUCGGAUGCAGAGGAGGCAGGCUUCGGUGGCGCGAUAGCGCCAACGUCCUCAACCUCCAAUGCAUCCCACCACAUGAUGAUGCCUGAAGAGCCUUGGUUUUUUG

Variants of: B1
Assay: polymerase ribozyme fitness, log enrichment relative to wild type (log ratio); higher = more active; in vitro selection for triplet polymerase activity
Method in brief: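 Mutant libraries of each subunit of a heterodimeric triplet polymerase ribozyme were built by PCR and transcribed. Each library went through one round of in vitro selection in triplicate: annealing with biotinylated primer, partner subunit and triplets, frozen incubation at −7 °C, gel excision of extended constructs, streptavidin-bead capture and RT-PCR. Input and output libraries were Illumina-sequenced; only genotypes with ≥10 input reads and ≥1 read per output were kept. Fitness is log2(genotype enrichment/wild-type enrichment), using inverse-variance-weighted replicate averages.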

Row | Variant | polymerase ribozyme fitness (log ratio)
1 | C73G U87A G122A | -4.5
2 | C15G C49G C89U C115G | -4.39
3 | C13A C53U | -2
4 | A50U C72U C73G G122A C124U | -0.982
5 | C40G G44U G63C C85U | -5.9
6 | C12U C40U | -0.543
7 | U96C G110C | -4
8 | A50U G69A U81A A100C | -4.08
9 | U54A G60C G117C | -3.99
10 | C11U A26G G45A G58A | -5.7
11 | U7G C12G A37G | 0.709
12 | A43G U112C G122U | -0.183
13 | A24G G71C | -2.48
14 | C22G A29C G61U G63C C97A C124A | -6.38
15 | C12A C34G G122U | -5.34
16 | A6G U30C G63A A111U G127C | -5.37
17 | C12A C22G A27U | -4.16
18 | G60A C123A | 0.222
19 | A27U U96C C124G | -1.73
20 | U9C G69A G77A | -2.73
21 | C12U U87A | 0.248

Row | Variant | polymerase ribozyme fitness (log ratio)
22 | G63A C115U | -1.45
23 | C20U G52C | -2.19
24 | G48C A83U A111C A118C | -0.0367
25 | G45C G61U C86U U87G G93C | -2.62
26 | C11A U67C | -5.83
27 | C34G G44A | -6.88
28 | A5G U109G | -4.99
29 | C20G G63U C82G G113C G128U | -4.75
30 | A5U C34G | -6.92
31 | A2G G57A C104A | -3.56
32 | G45U C56U A121U | 0.651
33 | G60U A111G U126A | -1.33
34 | A16U C40A G51A U92C G113C U116C G117C | -6.65
35 | C12G A75U C94G | -1.33
36 | G60U U116C | 0.0833
37 | G52U C73U U96G A121G | 1.57
38 | U21A G63A C88A A91C | -5.41
39 | C11G C49A A74G A75U G77U | -0.693
40 | U30G A43C C104A A111U | -6.22
41 | U9A G52U C88U C124A | 0.944
42 | C12U A50U C56G | -1.24

Row | Variant | polymerase ribozyme fitness (log ratio)
43 | C13A A50U | -3.1
44 | G45U G51A C94G | -5.45
45 | C11U U14C U38G | -4.03
46 | C3U G61U U78G U92G G120A G127U | -2.24
47 | G63U C70U | -0.91
48 | A43C G48U C62A A66U C123A | -6.8
49 | G60A G61U U96G | -2.55
50 | C88U C97U | -1.02
51 | A16U C56A G117U | -3.11
52 | G36C G44A G71U A75G C89A | -4.65
53 | A6G C79U C88G C104U | -1.13
54 | C8U G61U A66U C123A U133G | 0.747
55 | C13U C70G | -1.68
56 | U9C G39C G128C | -1.84
57 | G57U C89A | -1.5
58 | C4U C70U | -0.878
59 | C80A C82U A83U C101G | -5.83
60 | C56A C82A G128A | -2.53
61 | C82G C94G | -2.14
62 | G10A G93A | 0.205
63 | C8U U14G G45A G69A | -2.72

Row | Variant | polymerase ribozyme fitness (log ratio)
64 | U30C G71U | -3.2
65 | C20U U96A | -2.25
66 | G65U A66C | -4.3
67 | C104U G117A | -0.723
68 | C11G A18G C97U G110A | -3.11
69 | U9A G63U U96G G128A | -2.96
70 | C12A G19U G42U C70A U92A U112C U129G | -5.98
71 | C11G G52A C94A | 0.0249
72 | A46U C53A | -0.885
73 | A5U G44A A74U C82G U87G | -4.13
74 | C8G C20U U32G C56G G113A U125G | -3.85
75 | U9A A50C | 0.19
76 | G44U G51C | -5.32
77 | A18G A24G U55A | -5.14
78 | G61U C72U U131A | -0.274
79 | C22U C82A U87G | -5.14
80 | G77U U92G | -2.77
81 | A27C U78G U125A | -4.05
82 | G71C G93C G127A | -2.95
83 | U9A G36C C101U | -0.0357
84 | C4A C11G G44C U54C | -1.66
